Publication PMC11237084 (2024)

Target: Aβ(1-40) peptide, monomeric (UniProt P05067 672-711)
Experiment: SPR

Kd: 540 pM
B1: anticalin H1GA (Aβ-anticalin) (designed binder)
chain: QDSTSDLIPAPPLSKVPLQQNFQDNQFHGKWYVVGAAGNVLLREDKDPLKMYATIYELKEDKSYNVTSVGFDDKKCLYKIRTFVPGSQPGEFTLGRIKSEPGGTSWLVRVVSTNYNQHAMVFFKEVAQNRETFNITLYGRTKELTSELKENFIRFSKSLGLPENHIVFPVPIDQCIDG
